Assay [1] deals with GFP-Sec13 (UniProt P55735). The experiment in a line: co-immunoprecipitation and western blotting. As to conditions: parent: 0.8. (In general: In western blotting, separated proteins are transferred to a membrane and probed.)
Assay [2] addresses GFP-tagged Sec23 (UniProt Q15436). Put plainly: co-immunoprecipitation (anti-GFP beads) and western blotting, mean of three experiments. As to conditions: HEK293 cells co-transfected; parent: est. 1.0; read off a plot.
Assay [3] shares this target. Put plainly: co-immunoprecipitation (anti-GFP beads) and western blotting, single blot quantified. As to conditions: HEK293 cells co-transfected; parent: 1.
Assay [4] has as its target Sec23 (UniProt Q15436). Put plainly: anti-GFP co-IP, anti-FLAG blot. As to conditions: reference: wild type; sites S527,S799.

The source of these data is article PMC3548793.

Chain of FLAG-tagged wild type (WT) Sec31 (from UniProt O94979) S527A; S799A; T1163A; T1165A (O94979 whole entry, stated change not applied): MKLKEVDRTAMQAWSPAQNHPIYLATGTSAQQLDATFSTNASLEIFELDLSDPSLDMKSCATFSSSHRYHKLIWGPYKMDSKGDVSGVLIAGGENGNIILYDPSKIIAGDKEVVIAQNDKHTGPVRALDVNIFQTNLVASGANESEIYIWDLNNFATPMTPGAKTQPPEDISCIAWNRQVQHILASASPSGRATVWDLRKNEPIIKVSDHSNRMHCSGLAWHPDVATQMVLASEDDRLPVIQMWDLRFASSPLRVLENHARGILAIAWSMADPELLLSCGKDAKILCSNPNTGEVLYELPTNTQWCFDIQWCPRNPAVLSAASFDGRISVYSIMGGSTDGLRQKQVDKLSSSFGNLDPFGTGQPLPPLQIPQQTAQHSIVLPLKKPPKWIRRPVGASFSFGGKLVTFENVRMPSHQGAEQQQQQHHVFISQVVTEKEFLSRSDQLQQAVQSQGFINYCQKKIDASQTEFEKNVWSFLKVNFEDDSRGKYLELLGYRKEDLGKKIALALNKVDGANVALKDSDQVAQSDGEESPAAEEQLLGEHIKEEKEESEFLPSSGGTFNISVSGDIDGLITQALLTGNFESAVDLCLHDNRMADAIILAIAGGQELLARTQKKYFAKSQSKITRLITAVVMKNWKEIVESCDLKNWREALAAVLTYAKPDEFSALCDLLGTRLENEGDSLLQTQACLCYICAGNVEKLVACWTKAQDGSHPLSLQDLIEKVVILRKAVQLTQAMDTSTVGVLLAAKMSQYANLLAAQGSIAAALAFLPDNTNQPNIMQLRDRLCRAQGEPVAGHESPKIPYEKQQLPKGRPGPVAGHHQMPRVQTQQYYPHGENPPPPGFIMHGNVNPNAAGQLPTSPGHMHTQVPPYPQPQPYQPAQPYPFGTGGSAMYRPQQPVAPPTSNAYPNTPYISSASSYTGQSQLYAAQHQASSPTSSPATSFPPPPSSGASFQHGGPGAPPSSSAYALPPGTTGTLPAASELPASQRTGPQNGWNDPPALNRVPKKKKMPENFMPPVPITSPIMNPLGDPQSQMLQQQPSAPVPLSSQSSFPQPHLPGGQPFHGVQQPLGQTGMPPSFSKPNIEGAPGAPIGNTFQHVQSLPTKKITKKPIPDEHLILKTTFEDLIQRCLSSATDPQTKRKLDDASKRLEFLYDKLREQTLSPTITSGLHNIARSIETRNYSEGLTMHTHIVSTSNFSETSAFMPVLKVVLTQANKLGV
Chain of GFP-tagged Sec23 (Q15436 whole entry): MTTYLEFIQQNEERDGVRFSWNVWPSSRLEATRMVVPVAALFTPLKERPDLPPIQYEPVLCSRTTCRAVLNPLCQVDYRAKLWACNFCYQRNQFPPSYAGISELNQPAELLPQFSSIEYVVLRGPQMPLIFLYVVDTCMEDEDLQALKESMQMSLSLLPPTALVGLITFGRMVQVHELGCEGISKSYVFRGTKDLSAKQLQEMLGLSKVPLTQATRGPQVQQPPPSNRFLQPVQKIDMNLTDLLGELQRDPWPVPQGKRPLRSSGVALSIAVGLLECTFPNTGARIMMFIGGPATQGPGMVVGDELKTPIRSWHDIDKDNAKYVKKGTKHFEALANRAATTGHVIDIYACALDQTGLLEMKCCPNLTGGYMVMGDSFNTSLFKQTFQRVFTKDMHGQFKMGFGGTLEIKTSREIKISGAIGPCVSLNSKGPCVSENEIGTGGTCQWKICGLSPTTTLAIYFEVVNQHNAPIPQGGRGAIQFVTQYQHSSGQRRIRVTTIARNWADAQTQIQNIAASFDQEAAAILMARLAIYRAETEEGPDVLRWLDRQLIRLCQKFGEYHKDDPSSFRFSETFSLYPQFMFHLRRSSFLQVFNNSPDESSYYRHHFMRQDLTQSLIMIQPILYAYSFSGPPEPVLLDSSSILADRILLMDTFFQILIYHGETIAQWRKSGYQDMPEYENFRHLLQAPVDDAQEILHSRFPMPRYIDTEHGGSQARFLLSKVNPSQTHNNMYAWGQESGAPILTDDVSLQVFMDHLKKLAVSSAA
Chain of GFP-Sec13 (P55735 whole entry): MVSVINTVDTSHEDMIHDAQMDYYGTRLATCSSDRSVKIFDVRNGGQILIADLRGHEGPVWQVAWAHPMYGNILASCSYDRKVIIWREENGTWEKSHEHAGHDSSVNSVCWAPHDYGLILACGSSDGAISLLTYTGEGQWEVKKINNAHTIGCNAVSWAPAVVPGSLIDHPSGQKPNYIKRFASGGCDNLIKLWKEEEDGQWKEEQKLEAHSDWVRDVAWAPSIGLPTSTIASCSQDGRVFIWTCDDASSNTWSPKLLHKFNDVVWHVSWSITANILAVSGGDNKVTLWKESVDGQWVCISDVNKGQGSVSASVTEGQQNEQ
Chain of FLAG-tagged wild type (WT) Sec31 (from UniProt O94979) W985A (O94979 whole entry, stated change not applied): as the sequence (O94979 whole entry, stated change not applied) above
Chain of FLAG-tagged wild type (WT) Sec31 (from UniProt O94979) T1163A (O94979 whole entry, stated change not applied): as above

For “FLAG-tagged wild type (WT) Sec31 (from UniProt O94979) T1163A”, the other: normalized ratio of co-IP'ed Sec31 in assay [1] amounted to 1.1.

For “FLAG-tagged wild type (WT) Sec31 (from UniProt O94979) W985A”, the ratio to parent turned out to be 0.33 in assay [2] and 0.3 in assay [3].

“FLAG-tagged wild type (WT) Sec31 (from UniProt O94979) S527A; S799A; T1163A; T1165A”: the ratio to parent in assay [2] stood at 3.1; in assay [3] it was 3.2. Besides, the other: normalized ratio of co-IP'ed Sec31 in assay [1] worked out at 1.4.

As for Sec31 (from UniProt O94979) S527A/S799A, the fold change entry in assay [4] is on record as “stronger”.
